Data reported in patent US20220406376A1 (MacroGenics, published 2022).

Tests used:
[1] = biological target: T1, HER2/neu on the surface of target cells (N87, JIMT-1, MCF-7, MDA-MB231) (UniProt P04626 23-1255, limits assumed); experiment: flow cytometry on JIMT-1 cells, anti-hFc APC MFI
T1 construct: whole, on cells
Procedure: (§1) CD137×TA Binding Molecules, DART-B, DART-D, DART-G and the control molecules DART-3 and DART-6 were additionally evaluated for their ability to bind to HER2/neu expressed on N87 cells (FIG. 13A) and JIMT-1 cells (FIG. 13B). For such evaluation, 100 μL of HER2/neu expressing target cells (1.0×1⁰⁶ cells/mL) and 100 μL of serially diluted (5- or 10-fold dilutions) test article (bispecific diabody) were added to each well of microtiter assay plate(s), mixed and incubated at RT for 45 min. The cells were washed with FACS Buffer and secondary antibody (anti-human-Fc region-APC) was then added to each well; mixed and incubated at RT for 30 min. Cells were washed and resuspended in 100 μL FACS Buffer and analyzed by flow cytometry (BD LSR Fortessa or FACSCanto 11) for cell event collection. Data analysis were performed via FloJo v10.

[2] = biological target: T2, CD137 on the surface of cells (activated human T cells; engineered CHO cells) (human, UniProt Q07011 24-255); experiment: flow cytometry on activated pan T cells gated CD8, anti-hFc APC MFI
T2 construct: whole, on cells; also called human CD137; cell surface expressed CD137
T2 sequence (Q07011 24-255, change not shown): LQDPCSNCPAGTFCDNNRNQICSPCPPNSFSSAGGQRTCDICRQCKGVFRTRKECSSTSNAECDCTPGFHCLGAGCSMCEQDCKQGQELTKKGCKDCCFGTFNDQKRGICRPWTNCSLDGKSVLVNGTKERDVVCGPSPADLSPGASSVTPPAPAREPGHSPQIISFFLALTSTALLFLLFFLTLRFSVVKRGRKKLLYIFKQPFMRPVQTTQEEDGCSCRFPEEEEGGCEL

[3] = biological target: T1, HER2/neu on the surface of target cells …; experiment: flow cytometry on N87 gastric cancer cells, anti-hFc APC MFI
[4] = biological target: T1, HER2/neu on the surface of target cells …; experiment: flow cytometry on N87 cells, anti-hFc APC MFI
Procedure: as §1

[5] = biological target: T2, CD137 on the surface of cells …; experiment: flow cytometry on CD137-expressing CHO cells (CHO/137), anti-hFc APC MFI
[6] = biological target: T2, CD137 on the surface of cells …; experiment: flow cytometry on activated CD8+ T cells (donor D53781, CD8 FITC), anti-hFc APC MFI
[7] = biological target: T2, CD137 on the surface of cells …; experiment: flow cytometry on CD137-expressing CHO cells (CHO/137), anti-hFc APC MFI; remark: listed apart in the source
[8] = biological target: T2, CD137 on the surface of cells …; experiment: flow cytometry on activated CD8+ T cells (CD8 FITC), anti-hFc APC MFI
[9] = biological target: T2, CD137 on the surface of cells …; experiment: flow cytometry on activated pan T cells gated CD8, anti-hFc APC MFI; remark: listed apart in the source

Row | Binder | EC50 (read off the curve) [1] | binding result [2] | EC50 (read off the curve) [3] | EC50 (read off the curve) [4] | EC50 (read off the curve) [5] | EC50 (read off the curve) [2] | EC50 (read off the curve) [6] | EC50 (read off the curve) [7] | binding result [3] | EC50 (read off the curve) [8] | EC50 (read off the curve) [9]
1 | DART-3 (bispecific antibody, also called HER2×RSV control molecule; HER2/neu×RSV control molecule) chain 1: not shown chain 2: DIQMTQSPSTLSASVGDRVTITCRASQSVGYMHWYQQKPGKAPKLLIYDTSKLASGVPSRFSGSGSGTEFTLTISSLQPDDFATYYCFQGSGYPFTFGGGTKLEIKGGGSGGGGQVQLVQSGAEVKKPGASVKVSCKASGYTFTNYGMNWVRQAPGQGLEWMGWINTNIGEPTYTEEFKGRVTMTRDTSISTAYMELSRLRSDDTAVYYCARDDGYGNRVSYWGQGTLVTVSSGGCGGGKVAACKEKVAALKEKVAALKEKVAALKE | ~0.03 µg/mL | no binding | ~0.5 nM | ~0.05 µg/mL | – | – | – | – | – | – | –
2 | DART-6 (bispecific antibody, human IgG1, kappa, L234A L235A, also called RSV×CD137 control molecule; CD137×RSV control molecule) heavy: QVTLRESGPALVKPTQTLTLTCTFSGFSLSTSGMSVGWIRQPPGKALEWLADIWWDDKKDYNPSLKSRLTISKDTSKNQVVLKVTNMDPADTATYYCARSMITNWYFDVWGAGTTVTVSSASTKGPSVFPLAPSSKSTSGGTAALGCLVKDYFPEPVTVSWNSGALTSGVHTFPAVLQSSGLYSLSSVVTVPSSSLGTQTYICNVNHKPSNTKVDKRVEPKSCDKTHTCPPCPAPEAAGGPSVFLFPPKPKDTLMISRTPEVTCVVVDVSHEDPEVKFNWYVDGVEVHNAKTKPREEQYNSTYRVVSVLTVLHQDWLNGKEYKCKVSNKALPAPIEKTISKAKGQPREPQVYTLPPSREEMTKNQVSLSCAVKGFYPSDIAVEWESNGQPENNYKTTPPVLDSDGSFFLVSKLTVDKSRWQQGNVFSCSVMHEALHNRYTQKSLSLSPGK light: DIQMTQSPSTLSASVGDRVTITCRASQSVGYMHWYQQKPGKAPKLLIYDTSKLASGVPSRFSGSGSGTEFTLTISSLQPDDFATYYCFQGSGYPFTFGGGTKLEIKRTVAAPSVFIFPPSDEQLKSGTASVVCLLNNFYPREAKVQWKVDNALQSGNSQESVTEQDSKDSTYSLSSTLTLSKADYEKHKVYACEVTHQGLSSPVTKSFNRGEC chain 1: QVTLRESGPALVKPTQTLTLTCTFSGFSLSTSGMSVGWIRQPPGKALEWLADIWWDDKKDYNPSLKSRLTISKDTSKNQVVLKVTNMDPADTATYYCARSMITNWYFDVWGAGTTVTVSSASTKGPSVFPLAPSSKSTSGGTAALGCLVKDYFPEPVTVSWNSGALTSGVHTFPAVLQSSGLYSLSSVVTVPSSSLGTQTYICNVNHKPSNTKVDKRVEPKSCDKTHTCPPCPAPEAAGGPSVFLFPPKPKDTLMISRTPEVTCVVVDVSHEDPEVKFNWYVDGVEVHNAKTKPREEQYNSTYRVVSVLTVLHQDWLNGKEYKCKVSNKALPAPIEKTISKAKGQPREPQVYTLPPSREEMTKNQVSLWCLVKGFYPSDIAVEWESNGQPENNYKTTPPVLDSDGSFFLYSKLTVDKSRWQQGNVFSCSVMHEALHNHYTQKSLSLSPGGGGSGGGSGGGDIQMTQTTSSLSASLGDRVTISCRPSQDISNYLNWYQQKPDGTVKLLIYYTSRLRSGVPSRFSGSGSGTDYSLTISNLEQEDIATYFCQQGDTLPYTFGGGTKLEIKGGGSGGGGQVQLQQPGAELVRPGASVKLSCKASGYTFTSYWINWVKQRPGQGLEWIGNIYPSDSYTNYNQKFKDKATLTVDKSSSTAYMQLSSPTSEDSAVYYCTRDYGSSYSFDYWGQGTTLTVSSGGCGGGEVAALEKEVAALEKEVAALEKEVAALEK chain 2: DIQMTQTTSSLSASLGDRVTISCRPSQDISNYLNWYQQKPDGTVKLLIYYTSRLRSGVPSRFSGSGSGTDYSLTISNLEQEDIATYFCQQGDTLPYTFGGGTKLEIKGGGSGGGGQVQLQQPGAELVRPGASVKLSCKASGYTFTSYWINWVKQRPGQGLEWIGNIYPSDSYTNYNQKFKDKATLTVDKSSSTAYMQLSSPTSEDSAVYYCTRDYGSSYSFDYWGQGTTLTVSSGGCGGGKVAALKEKVAALKEKVAALKEKVAALKE | – | – | – | – | ~0.02 µg/mL | ~0.2 nM | ~0.02 µg/mL | ~0.02 µg/mL | no binding | ~0.02 µg/mL | ~0.1 nM
